The nanobody polyreactivity screen of Harvey et al. (2022)

Experiment: yeast display, Sf9 membrane polyspecificity reagent, FACS + sequencing; frameworks hold sequencing errors
Method in brief: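 After 36–48 hours of galactose induction, yeast (Saccharomyces cerevisiae BJ5465) displaying a synthetic nanobody library were stained at 4 °C for 1 hour with 10% biotinylated, detergent-solubilized Sf9 membrane reagent. Streptavidin microbeads enriched the stained cells before FACS sorting into low and high (top ~1%) gates on anti-HA and streptavidin fluorescence. Each clone's polyreactivity label reflects its gate of origin.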

Sequence | polyreactivity (PSR sort gate)
QVELVESGGGLVQAGGSLRLSCAASGFTFQEYAMGWYRQAPGQETELVAAISTSGDYTYYADSVKGRFTISRDNAKHTVYFQMNSLKPEDTAVYYCATGVDTYSLTVEHDSWGQGTQLTVSS | low polyreactivity
QVQLVESGGGLVQAGGSLRLSCAASGLTFYTYAMGWYRQAPGKERELVAAISTNGGSTYYADSVKGRFTISRDNAKNTVYLQMNSLKPEDTAVYYCAKEGGTYRIFNYWGQGTQVTVSS | low polyreactivity
QVQLVESGGGLVQAGGSLRLSCAASGFTFSRNAMGWYRQAPGKERELVAAISQSGGSTYYADSVKGRFTISRDNAKNTVYLQMNSRKPEDTAVYYCAATGWIIIKPTSSLKFNYWGQGTQVTVSS | high polyreactivity
QVQLVESGGGIVQSGGSLRLSCAASGRTFSSYAMGRYRQAPGKEMALVAAINRGGGSTYYADSVKGRFTISRDNAKNTVYLQMNSLKPEDTAVYYCNARSKLTYEYDYWGQGTQVTVSS | high polyreactivity
QVKLVESGGGLVQAGGTLPITCAASGRTFARYAMVWYRQAPGKERELVSAITGRSGTNTYYADSVKGRFTISRDNAKNTVYLQMNSLKPEDTAVYYCAADLQGYYFRGRWTSYDYWGQGTQVTVSS | high polyreactivity
QVQLVESGGGLVQAGGSLRLSCAASGRTFPGYAMGWYRQAPGKERELVATITLSDGSTYYADSVKGRFTISRDNAKTTVYLQMNSLKPEDTAVYYCNARRSYFLRYGVNYWGQGTQVTVSS | low polyreactivity
QVQHVVSVGGLVQAGGSLRLSCAASGSTFLLNTMGWYRQAPGKERELVAAISSITGDTYYADSVKGRFTISRDNAKNTVYLQMNSLKPEDTAVYYCAAYLSETRPYLYDYWGLGTQVTVSS | low polyreactivity
QVQLGESGGGLVQAGGSLRLSCAASGSTRGYTMGWYRQAPGKERELVAVISYSGGRTYYADSVKGRFTISRDNAKNTVYLQMNSLKPEDTAVYYCNAYYYQFRGIRVSGGYWGQGTQVTVSS | high polyreactivity
QVQLVESGGGLVQAGGSLRLSCAASGSIFRDNTMGWYRQAPGKERELVAAISYSGGGTYYADSVKGRVTISRDNAKNTVYLQMNSLKPEDTAVYYCAKRTYPWYYREIPYGYWGQGTQVTVSS | high polyreactivity
QVQLVESGGGLVQAGGSLRLSCAASGLIFYKYAMGWYRQAPGNERELVAAISRGDNTYYADSVKGRFTISRDNAKNTVYLQMNSLKPEDTALYYCAAYRWIYQSQYQGYWLDYWGQGTQVTVSS | high polyreactivity
QVQLVESGGGLVQAGGSLRLSCAASGRTFGYNAMGWYRQAPGKVRELVAAITSGGSTYYADSVKGRFTISRDNAKNTVYLQMNSLKPEDTAVYYCNARYPGFWSGWEEYWGQGTQVTVSS | high polyreactivity
QVQLVESGGGLVQAGGSLRLICAASGSIIGVNAMGWYRQAPGKERELVAAITSTGGSTYYADSVKGRFTISRDNAKNTVYLKMNSLKPEDTAVYYCNTHYSKSIGEGYAGFDYWGQGTQVTVSS | low polyreactivity
QVQLVESGGGLVQAGGSLRLSCAASGSIFGIYAMGWYRQAPGKERELVAAIRRGGSTYYADSVKGRFTISRDNAKNTVYLQMNSLKPEDTAVYYCNTDYHRLLRSRPKYYYWGQGTQVTVSS | high polyreactivity
QFQLVESGGGLVQAGGSLRLSCAASGSILESNVMGWYRQAPGKERELVASISSSGVSTYADSVKGRFTISRDNAKNTVYLQMNSLKPEDNAVYYCAADRWYWTYALYYWGQGTQVTVSS | low polyreactivity
QVQLVESGGGLVQAGGSLRLSCAASGIIFDGNSMGWYRQAPGKEREFVAANSRNGGSTSYADSVKGRFTISRHNAKNTVYLQMHSLKPEDTAVYYCAADVETFWGCRYEYWGQGTQVTVSS | low polyreactivity
QVQLVESGGGLVQAGGSLRLSCAASGFIFSANAMGWYRQAPGKERELVAAISSRGTSTYYADSVKGRFTISRDYAKNTVYLQMNSLKPEDTGVYFCAADYYQAGTYVWMDYWGQGTQVTVSS | high polyreactivity
QVQLVESGGGLVQAGGSLRLSCAASGSIFRKNAMGRYRQAPGKERELVAAITGTGRTTYADSVKGRFTISRDNAKNTVYLQMNSLKPEDTAVYYCAADVNYYQHRLYYWGQGTQVTVSS | low polyreactivity
QVQLVESGGGLVQAGGSLRLSCAASGSIFGGNTMGWYRKAPGKERELVAAITNGGRTNYADSVKGRFTISRDNAKNTVYLQMNSLKPEDTAVYYCNAVTYSRRYAYYYWGQGTQVTVSS | high polyreactivity
QVQLVESGGGLVQAGGSLRLSCAASGSTFDVYAMGWYRQGPGKERELVATISNYGGDTYYADSVKGRFTISRDNAENTVYLQMNTLKPEDTAVYYCNAYLRFVDVSLDYQLLLEHDFWGQGTQVTVSS | low polyreactivity
HVQLVESGGGLVQAGGSLRLSCAASGRIFVDYVMGWYRQAPGKERELVARITWIGGNTYYADSVKGRFTISRDNAKNTVYFQMNCLKPEDTAVYYSNAGLTLLSRRHEGWYGDDYWGPGTQVTVSS | low polyreactivity
QVQLVESGGGLVQAGGSLRLSCAASGNAMGWYRQAPGKERDLVAAITRRGGSTYYADSVKGRFTISRDNAKNTVYLQMNSLKPEDTAVYYCAADNPSYNLWYGYWGQGTQVTVSS | low polyreactivity

Sequence | polyreactivity (PSR sort gate)
QEQLQESGGGLVQAGGSLRLSCAASGIIFDWFFMGWYRQAPGREREFVAAITYGATTNYADSVKGRFTISRDNGKNTVYLQMNSLKPEDTAVYYCAAVRGRGGTHAYWGQGTQVTVSG | low polyreactivity
QVQLVESGGGLVQAGGSLRLSCAASGSIFYAYAMGWYRQAPGKERELVAAISSDGSTYYADSVKGRFTISRDNAKNTVYLQMTSLKPEDTAVYYCAASVLAPNAVSGSDYWGQGTQVTVSS | low polyreactivity
QVQLVESGGGLVQAGGSLRLSCAASGSIFGYYTMGWYRQAPGKERELVATITSGGSTYYADSVKGRFTISRDNAKNTDYLQMNSLKPEDTAVYYCNARTAQNVVLYDFGYWGQGTQVTVSS | high polyreactivity
QVQLVESGGGLVQAGCSLLLICADSGFIFYGYVMGWYRQAPGKEMEWVAGITSSGTSTYADSVKGRFTISRDNAKNTVFLQMNSLKPEDTAAYYCAALRRQYGARDYDYWGQGTQVTVSA | low polyreactivity
QDQLVESGGGLVQAGGRLRLSCAASGSIFNYYTMGWYRQAPGKETELVAAITWSGGRTYYADSVKGRFTISRDNAKNTVYLQMNSLKPEDTAVYYCNAVAYKPGGGEDFESWGQGTQVTVSS | high polyreactivity
QVQLVESGGGLVQAGGSLRLSCAASGRIFYGYTMGWYRQAPGKERELVAAITQRGGNTHYADSVKGRFTISRDNAKNTVYLQMNSLKPEDTAVYYCAAKYYPYVRRVQYYYWGQGTQVTVSS | high polyreactivity
QVQLQESGGGLVQAGGSLRLSCAATGTIFTDRFMGWYLQAPGKERELVACISPGTSTNYADSVKGRFTISRDNAKNTVYLKINSLKPEDTAVYYCAADWSTGNNLPYWGQGTQVTVSS | high polyreactivity
QVQLVESGGGLVQAGGSLRLSCAASGRTFYTYAMGLYRQAPGNERELVATITSGGSTYYADSVKGRFTISRDNAKNTVYLQMNSLKPEDTAVYYCARRRRESRQDGDYWVQGTQVTVSS | high polyreactivity
QVQLVESGGGLVQAGGSLRLSCAASGSIFKYYALGWYRQAPGKERELVAAITSGVSTYADSVKGRFTISRDNAKNTVYLQMNSLKPEDTAVYYCAVRVTGPRGDYWGQGTQVTVSS | low polyreactivity
QVQLVESGGGLVQAGGSLRLSCAASGFIFRTYAMAWYRQAPGKERELVAAIRQSAGRTYYADSVKGRFTISRDNAKNTVYLQMISLKPEDTAVYYCAADRSPYRRQYDYWGQGTQVTVSS | high polyreactivity
QVQLVESGGGLVQAGGSLRLSCAASGIIFGAYAMGWYRQAPGKERELVAAITYSSGSTYYADSVKGRFTISRDNAKNTVYLQMNRLKPEDTAVYYCAKTNFSQSSRSNYDYWGQGTQVTVSS | low polyreactivity
QVQLVESGRALVQAGGSLRLSCAASGRICGIYSMGWNRQAPGKEREFVAAISDRSGSRTYYADSVKGRFTISRDNAKNTVYLQMNSLKPEDTAVYYCNARHQYQTLYPGGYYWGQGTQVTVSS | high polyreactivity
QVQLVESGGGLVQAGGSLRLSCSASGSTITTYAMGWYRQAPGKERELVAAISTNGGRTCYADSVKGRFTISRDYAKNTVSLQMNSLKPEDTAVYYCAAEYGLYAPGYYYWGQGTQVTVSS | low polyreactivity
QVQLVESAGGLVQAGGSLRISCAASGSIFYYYAMGWYRQAPGKERELLAAIDSGGSTYYADSVKGRFTISRDNAKNTVYLQMNSLKPEDTAVYYCAADTYWFVYYGYDYWGQGTQVTVSS | low polyreactivity
QVQLVESGGGLVQAGGSLRLSCAASGSIFYSYAMGWYRQAPGKERELVADITWYGGRTYYADSVKGRFTISRDNAKNTVYLQMNSLKPEDTAVYYCAADVYLYDYWGQGTQVTISS | high polyreactivity
QVQLVESGGGLVQAGGSLRLSSAASGSIFFRNAMGWYRKAPGKERELVAAISRSGGNTYYADSVKGRFTISRDNAKNTVYLQMNSLKPEDTAVYYCAKYRTLYWYDYWGQGTQVTVSS | high polyreactivity
QVQLVESGGGLVQAVGSLRLSCAASGLIFWRNAMGWYRQAPGKERELVAAITYSGSRTYYADSVKGRFTISRDNAKNTVYLQMNSLKPEDTAVYYCNADYYWYPYEDDDWGQGTQVTVSS | low polyreactivity
QVQLVESGGGLVQAGGSLRLRCAASGRTFVGTAMGWYRQAPGKERELVAAISWDGGSPYYADSVKGRFTISRDNAKNTVYLQMNSLKPEDTAVYYCAALYRPSAFRGYGYWGQGTQVTVSS | high polyreactivity
QVQLVDSGGGLVQAGGSLRISCAASGNILIGNVMGWYRQAPGKERELVAAITSGGDTYYADSVKGRITISRDNAKNTVYLQMNSLKPEDTAVYYCAADRPGQPKYEYWGQGTQVTVSS | low polyreactivity
QVQLVESGGGLVQAGGSLRISCAASGITASNAMGWNRQAPGKERELVAAISCRGGRTYYADSVKGRFTISRDNAKNTVYLQMNSLKPEDTAVYYCAKRYYTAQSRSDYWGQGTQVTVSS | high polyreactivity
